# According to PMC5473807, “Distribution and kinetics of the Kv1.3-blocking peptide HsTX1[R14A] in experimental rats” (Scientific Reports, 2017):
# Where two headings read alike, the source gives them in different places.
# Assay: In vivo biodistribution by organ and tissue extraction
# Set-up: species or system male Wistar rats
# Conditions: for SUV at 5 min / tissue uptake dose at 5 min / SUV at 1 h / tissue uptake dose at 1 h / SUV at 4 h / tissue uptake dose at 4 h / SUV at 24 h / tissue uptake dose at 24 h / SUV at 48 h / tissue uptake dose at 48 h: male, Wistar, total radioactivity, rat, mean ± SD; for SUV at 5 min / tissue uptake dose at 5 min: 5 min p.i.; for SUV at 1 h / tissue uptake dose at 1 h: 60 min p.i.; for SUV at 4 h / tissue uptake dose at 4 h: 240 min p.i.; for SUV at 24 h / tissue uptake dose at 24 h: 1440 min p.i.; for SUV at 48 h / tissue uptake dose at 48 h: 2880 min p.i.
# Protocol: The present study includes data obtained from a total of 50 animals. Four animals (body weight 227 ± 10 g) for each time point were injected intravenously into a tail vein or subcutaneously with approximately 0.3 MBq ([…]) [^64Cu]Cu-NOTA-HsTX1[R14A] conjugate in 0.5 mL electrolyte solution E-153 (Serumwerk Bernburg, Germany). Animals were euthanised at 5, 60, 240, 1440 and 2880 min post-injection. Blood and the major organs were collected, weighed, and counted in a cross-calibrated γ-counter (Isomed 1000, Isomed GmbH, Dresden) and Wallac WIZARD Automatic Gamma Counter (PerkinElmer, Germany). The radioactivity of the tissue samples was decay-corrected and calibrated by comparing the counts in tissue with the counts in aliquots of the injected radiotracer that had been measured in the γ-counter at the same time. The activity in the selected organs was expressed as percent-injected dose per organ (% ID) and the activity concentration in tissues and organs as standardised uptake value (SUV). Values are quoted as mean ± standard error of mean (SEM) for each group of four animals.
# [1] = Harderian gland, iv, 0.3 MBq, i.v., n=4, read-out: Harderian gl. SUV
# [2] = Harderian gland, iv, 0.3 MBq, i.v., n=4, read-out: Harderian gl. activity amount
# [3] = Harderian gland, iv, 0.3 MBq, i.v., n=8, read-out: Harderian gl. SUV
# [4] = Harderian gland, iv, 0.3 MBq, i.v., n=8, read-out: Harderian gl. activity amount
# [5] = Harderian gland, sc, 0.3 MBq, s.c., n=4, read-out: Harderian gl. SUV
# [6] = Harderian gland, sc, 0.3 MBq, s.c., n=4, read-out: Harderian gl. activity amount
# [7] = adrenals, iv, 0.3 MBq, i.v., n=4, read-out: Adrenals SUV
# [8] = adrenals, iv, 0.3 MBq, i.v., n=4, read-out: Adrenals activity amount
# [9] = adrenals, iv, 0.3 MBq, i.v., n=8, read-out: Adrenals SUV
# [10] = adrenals, iv, 0.3 MBq, i.v., n=8, read-out: Adrenals activity amount
# [11] = adrenals, sc, 0.3 MBq, s.c., n=4, read-out: Adrenals SUV
# [12] = adrenals, sc, 0.3 MBq, s.c., n=4, read-out: Adrenals activity amount
# [13] = blood, sc, s.c., n=4, read-out: Blood SUV
# [14] = brain, iv, 0.3 MBq, i.v., n=4, read-out: Brain SUV
# [15] = brain, iv, 0.3 MBq, i.v., n=4, read-out: Brain activity amount
# [16] = brain, iv, 0.3 MBq, i.v., n=8, read-out: Brain SUV
# [17] = brain, iv, 0.3 MBq, i.v., n=8, read-out: Brain activity amount
# [18] = brain, sc, 0.3 MBq, s.c., n=4, read-out: Brain SUV
# [19] = brain, sc, 0.3 MBq, s.c., n=4, read-out: Brain activity amount
# [20] = carcass, iv, 0.3 MBq, i.v., n=4, read-out: Carcass activity amount
# [21] = carcass, iv, 0.3 MBq, i.v., n=8, read-out: Carcass activity amount
# [22] = carcass, sc, 0.3 MBq, s.c., n=4, read-out: Carcass activity amount
# [23] = femur, iv, 0.3 MBq, i.v., n=4, read-out: Femur SUV
# [24] = femur, iv, 0.3 MBq, i.v., n=4, read-out: Femur activity amount
# [25] = femur, iv, 0.3 MBq, i.v., n=8, read-out: Femur SUV
# [26] = femur, iv, 0.3 MBq, i.v., n=8, read-out: Femur activity amount
smiles,measurement,setting,value
"CSCC[C@@H]1NC(=O)[C@@H]2CSSC[C@H](NC(=O)[C@H](CO)NC(=O)[C@H](C)NC(=O)COCCOCCNC(=O)CN3CCN(CC(=O)O)CCN(CC(=O)O)CC3)C(=O)N[C@@H](CCCNC(=N)N)C(=O)N[C@@H]([C@@H](C)O)C(=O)N3CCC[C@H]3C(=O)N[C@@H](CCCCN)C(=O)N[C@@H](CC(=O)O)C(=O)N[C@H]3CSSC[C@H](NC(=O)[C@H](CCCCN)NC(=O)[C@H](CCCNC(=N)N)NC(=O)[C@H](CC(N)=O)NC1=O)C(=O)N[C@@H](CCCCN)C(=O)N[C@H]1CSSC[C@H](NC(=O)[C@@H]4CCCN4C(=O)[C@H](CC(=O)O)NC(=O)[C@H](C)NC3=O)C(=O)N[C@@H](C)C(=O)N[C@@H](CCCCN)C(=O)N[C@@H](CCC(=O)O)C(=O)N[C@@H]([C@@H](C)O)C(=O)NCC(=O)N[C@@H](CSSC[C@@H](C(N)=O)NC(=O)[C@H](CCCNC(=N)N)NC(=O)[C@H](CC(N)=O)NC1=O)C(=O)N1CCC[C@H]1C(=O)N[C@@H](Cc1ccc(O)cc1)C(=O)NCC(=O)N[C@@H](CCCCN)C(=O)N2 [[^64Cu]Cu-NOTA-HsTX1[R14A], metal not drawn]",biological half-life of the total activity in the rat body,i.v.,45.4 h
same,SUV at 5 min,[1],0.82 ± 0.12 SUV
same,tissue uptake dose at 5 min,[2],0.1 ± 0.02 %ID
same,SUV at 1 h,[3],0.3 ± 0.05 SUV
same,tissue uptake dose at 1 h,[4],0.04 %ID
same,SUV at 4 h,[1],0.23 ± 0.01 SUV
same,tissue uptake dose at 4 h,[2],0.03 %ID
same,SUV at 24 h,[3],0.56 ± 0.1 SUV
same,tissue uptake dose at 24 h,[4],0.08 ± 0.01 %ID
same,SUV at 48 h,[1],0.48 ± 0.05 SUV
same,tissue uptake dose at 48 h,[2],0.07 %ID
same,SUV at 1 h,[5],0.32 ± 0.01 SUV
same,tissue uptake dose at 1 h,[6],0.04 %ID
same,SUV at 4 h,[5],0.21 ± 0.01 SUV
same,tissue uptake dose at 4 h,[6],0.03 %ID
same,SUV at 24 h,[5],0.46 ± 0.01 SUV
same,tissue uptake dose at 24 h,[6],0.08 ± 0.01 %ID
same,SUV at 48 h,[5],0.44 ± 0.02 SUV
same,tissue uptake dose at 48 h,[6],0.06 ± 0.01 %ID
same,SUV at 5 min,[7],1.26 ± 0.48 SUV
same,tissue uptake dose at 5 min,[8],0.03 %ID
same,SUV at 1 h,[9],0.65 ± 0.37 SUV
same,tissue uptake dose at 1 h,[10],0.01 %ID
same,SUV at 4 h,[7],0.39 ± 0.05 SUV
same,tissue uptake dose at 4 h,[8],0.01 %ID
same,SUV at 24 h,[9],0.86 ± 0.11 SUV
same,tissue uptake dose at 24 h,[10],0.02 %ID
same,SUV at 48 h,[7],0.71 ± 0.04 SUV
same,tissue uptake dose at 48 h,[8],0.02 %ID
same,SUV at 1 h,[11],0.4 ± 0.08 SUV
same,tissue uptake dose at 1 h,[12],0.01 %ID
same,SUV at 4 h,[11],0.4 ± 0.02 SUV
same,tissue uptake dose at 4 h,[12],0.01 %ID
same,SUV at 24 h,[11],0.73 ± 0.1 SUV
same,tissue uptake dose at 24 h,[12],0.02 %ID
same,SUV at 48 h,[11],0.55 ± 0.33 SUV
same,tissue uptake dose at 48 h,[12],0.02 ± 0.01 %ID
same,SUV at 5 min,"blood, iv, 0.3 MBq, i.v., n=4, read-out: Blood SUV",1.09 ± 0.62 SUV
same,SUV at 1 h,"blood, iv, 0.3 MBq, i.v., n=8, read-out: Blood SUV",0.7 ± 0.23 SUV
same,SUV at 4 h,[13],0.47 ± 0.21 SUV
same,SUV at 24 h,[13],0.44 ± 0.04 SUV
same,SUV at 48 h,[13],0.3 ± 0.01 SUV
same,SUV at 5 min,[14],0.07 SUV
same,tissue uptake dose at 5 min,[15],0.05 %ID
same,SUV at 1 h,[16],0.05 ± 0.01 SUV
same,tissue uptake dose at 1 h,[17],0.05 ± 0.03 %ID
same,SUV at 4 h,[14],0.03 SUV
same,tissue uptake dose at 4 h,[15],0.05 ± 0.01 %ID
same,SUV at 24 h,[16],0.08 ± 0.01 SUV
same,tissue uptake dose at 24 h,[17],0.08 ± 0.03 %ID
same,SUV at 48 h,[14],0.07 SUV
same,tissue uptake dose at 48 h,[15],0.1 %ID
same,SUV at 1 h,[18],0.04 SUV
same,tissue uptake dose at 1 h,[19],0.06 ± 0.01 %ID
same,SUV at 4 h,[18],0.03 SUV
same,tissue uptake dose at 4 h,[19],0.05 %ID
same,SUV at 24 h,[18],0.06 SUV
same,tissue uptake dose at 24 h,[19],0.1 %ID
same,SUV at 48 h,[18],0.07 SUV
same,tissue uptake dose at 48 h,[19],0.09 %ID
same,tissue uptake dose at 5 min,[20],63.4 ± 6.19 %ID
same,tissue uptake dose at 1 h,[21],28.1 ± 1.55 %ID
same,tissue uptake dose at 4 h,[20],20.1 ± 1.68 %ID
same,tissue uptake dose at 24 h,[21],28.4 ± 3.49 %ID
same,tissue uptake dose at 48 h,[20],21.6 ± 1.04 %ID
same,tissue uptake dose at 1 h,[22],32.9 ± 2.62 %ID
same,tissue uptake dose at 4 h,[22],20.1 ± 1.28 %ID
same,tissue uptake dose at 24 h,[22],28.5 ± 1.49 %ID
same,tissue uptake dose at 48 h,[22],19.7 ± 2.74 %ID
same,SUV at 5 min,[23],3.04 ± 2.13 SUV
same,tissue uptake dose at 5 min,[24],1.32 ± 0.89 %ID
same,SUV at 1 h,[25],1.58 ± 0.58 SUV
same,tissue uptake dose at 1 h,[26],0.8 ± 0.21 %ID
same,SUV at 4 h,[23],0.87 ± 0.04 SUV
same,tissue uptake dose at 4 h,[24],0.55 ± 0.03 %ID
same,SUV at 24 h,[25],0.54 ± 0.06 SUV
same,tissue uptake dose at 24 h,[26],0.3 ± 0.06 %ID
